System: wild-type C57BL/6J mice
Assay: Locomotor behavior test (open field) before and after L-DOPA
Assay type: in vivo, mouse
Source text: RAID neuromodulation provides an approach for precise modulation of brain activity through regionally activated interstitial drug delivery. It should be noted, site-specific, noninvasive methods hold promise for controlled behavioral modulation. As such, to evaluate long-term efficacy of RAID neuromodulation, RAID's ability to sustain behavioral control over time is described herein. In some embodiments, to measure effects of RAID neuromodulation on behavior, targeting dorsal striatum with two FUS sites are be analyzed. In some instances, effects of RAID neuromodulation by targeting dorsal striatum with two FUS sites can be used to increase an amount of on-target delivery of AADC in the CPu region that contains dopamine-responsive cells. […] With this in mind, in certain embodiments, a pair of AADC-IKVAV (SEQ ID NO: 23) and L-DOPA may be used to evaluate whether RAID can induce similar behavioral changes after the prodrug administration. In some embodiments, AADC-IKVAV (SEQ ID NO: 23) is delivered via FUS-BBBO to two sites in the left striatum region of wild type mice. FIG. 11a illustrates embodiments of RAID control of behavior through targeted neuromodulation including an experimental scheme for RAID-induced control of motor behavior by targeted activation of dopamine neurons, in accordance with embodiments described herein. As illustrated, FUS in two sites of the left striatum are used to deliver AADC-IKVAV (SEQ ID NO: 23) (250 mg/kg, i.v. injection) or PBS buffer control. After 2 days, open field test (OFT) was performed twice before and after a single injection of the prodrug L-DOPA (2 mg/kg, i.p.), allowing 200 minutes between each test. The locomotor activity was recorded for 15 min after a habituation period of 5 min in each test. After the testing, mice were perfused 2 h after L-DOPA administration for histologic examination of AADC-IKVAV (SEQ ID NO: 23) retention and neuron activation (c-Fos+) to confirm localize neuromodulation. As schematically depicted in FIG. 11a, the AADC protein fused with a short peptide IKVAV (SEQ ID NO: 23) (e.g., AADC-IKVAV (SEQ ID NO: 23)) to two sites in the left striatum of wild-type mice using FUS-BBBO. After 46 hours, the mice underwent an open field (OF) test to assess baseline locomotor activity over a 20-minute period. The mice were then returned to their home cages and, 100 minutes later, received an intraperitoneal injection of L-DOPA (2 mg/kg) before undergoing another OF test.
Locomotor behavior test—Two groups of mice underwent FUS-BBBO targeting two sites at left striatum immediately after intravenous injection of recombinant protein AADC-IKVAV (SEQ ID NO: 23) (n=14 mice for FUS+AADC-IKVAV group, 20 mg/mL, 250 mg/kg) or equivalent volume of PBS buffer (n=11 mice for FUS alone group). Another group without FUS-BBBO procedure served as wild type control (n=12 mice for WT group). After 46 h, the first session of behavioral test was performed in a custom-made non-transparent open field box (30.5 cm×30.5 cm) as a baseline. Each mouse was individually placed into the apparatus center with a light intensity and background noise at ˜320 lux and 46 dB (400 Hz peak), respectively. After a habituation period of 5 min, the locomotor activity of a freely-moving mouse was recorded for 15 min by a video tracking system (Stoelting Co.) consisting of an overhead camera connected to a computer with Any-Maze software. Behavioral measures include total distance traveled, average and maximum speed, freezing time and episodes, mobile/immobile time and episodes, clockwise and counterclockwise rotations and head turn angles. The mouse was returned to the home cage immediately after testing. After 90 min, the mice were intraperitoneally injected with carbidopa (25 mg/kg) and 10 min later L-DOPA (2 mg/kg) as described above. A second session of open field test 100 min after L-DOPA injection.

[1] = FUS+AADC-IKVAV alone, 46 h, vs WT and FUS alone

Row | Molecule | decrease of clockwise (contralateral) rotation after L-DOPA (FUS alone group, L-DOPA 2 mg/kg i.p.) | change in episodes of mobility after L-DOPA (control groups, FUS alone or wild type, L-DOPA 2 mg/kg i.p.) | reduction of counter-clockwise (ipsilateral) rotations after L-DOPA (control mice with FUS alone or no treatment, L-DOPA 2 mg/kg i.p.) | decrease of clockwise (contralateral) rotation after L-DOPA (untreated wild-type group, L-DOPA 2 mg/kg i.p.) | counter-clockwise rotations before L-DOPA administration [1] | number of mobile episodes before L-DOPA administration [1] | clockwise (contralateral) rotation after L-DOPA (RAID treatment: FUS + AADC-IKVAV, L-DOPA 2 mg/kg i.p.) | decrease in mobile episodes after L-DOPA (RAID: FUS two sites left striatum + AADC-IKVAV 250 mg/kg i.v., 2 days, L-DOPA 2 mg/kg i.p.) | reduction of counter-clockwise (ipsilateral) rotations after L-DOPA (full RAID treatment: FUS + AADC-IKVAV 250 mg/kg i.v., L-DOPA 2 mg/kg i.p.)
1 | N[C@@H](Cc1ccc(O)c(O)c1)C(=O)O [L-DOPA, reference compound] | 44±13% | no significant change | not in the control mice | 52±8% | – | – | – | – | –
2 | AADC-IKVAV: aromatic-L-amino-acid decarboxylase (AADC) protein fused with short peptide IKVAV (SEQ ID NO: 23); CDS SEQ ID NO: 21 (protein, misc_feature 1..1602 Synthetic: AADC-IKVAV) MRGSHHHHHHGMASMTGGQQMGRDLYDDDDKDPMNASEFRRRGKEMVDYMANYMEGIEGRQVYPDVEPGYLRPLIPAAAPQEPDTFEDIINDVEKIIMPGVTHWHSPYFFAYFPTASSYPAMLADMLCGAIGCIGFSWAASPACTELETVMMDWLGKMLELPKAFLNEKAGEGGGVIQGSASEATLVALLAARTKVIHRLQAASPELTQAAIMEKLVAYSSDQAHSSVERAGLIGGVKLKAIPSDGNFAMRASALQEALERDKAAGLIPFFMVATLGTTTCCSFDNLLEVGPICNKEDIWLHVDAAYAGSAFICPEFRHLLNGVEFADSFNFNPHKWLLVNFDCSAMWVKKRTDLTGAFRLDPTYLKHSHQDSGLITDYRHWQIPLGRRFRSLKMWFVFRMYGVKGLQAYIRKHVQLSHEFESLVRQDPRFEICVEVILGLVCFRLKGSNKVNEALLQRINSAKKIHLVPCHLRDKFVLRFAICSRTVESAHVQRAWEHIKELAADVLRAEREGGSGSSGGSGGSGGSGIKVAV | – | – | – | – | no effect | no effect | prevented that decrease | 38±8% | 63±10%
